These results are taken from US20110224139A1.

Data set [1] has as its target T1, Ac-…-CONH2 (RAD16-II) self-assembling peptide, as nanofiber hydrogel.
T1 sequence (peptide, N-terminal acetyl (Ac); C-terminal amide (CONH2)): RARADADARARADADA
Briefly: in vitro binding experiment: release of 100 nM Alexa-488 labeled protein from a nanofiber hydrogel in culture inserts.

In data set [2] the target is T2, SDF-1(S4V)-N-terminal peptide (first 8 amino acids of SDF-1(S4V), FRET peptide).
T2 chain: KPVVLSYR

For data set [3], the target named is T3, SDF-1-N-terminal peptide (first 8 amino acids of SDF-1, FRET peptide).
T3 chain: KPVSLSYR

The target of data set [4] is Sumo-SDF-1(S4V)-RAD.
Data set [5] concerns the target Sumo-SDF-1-RAD.

Consider “Alexa-488 labeled SSDF-1 (from UniProt P48061 22-89) (ligand)”, for which the percent released from the nanofibers over 24 hours in data set [1] was determined as 73%.

B1: Human recombinant MMP-2 (R&D Systems), activated with 4-aminophenylmercuric acetate (protein)
chain: YNFFPRKPKWDKNQITYRIIGYTPDLDPETVDDAFARAFQVWSDVTPLRFSRIHDGEADIMINFGRWEHGDGYPFDGKDGLLAHAFAPGTGVGGDSHFDDDELWTLGEGQVVRVKYGNADGEYCKFPFLFNGKEYNSCTDTGRSDGFLWCSTTYNFEKDGKYGFCPHEALFTMGGNAEGQPCKFPFRFQGTSYDSCTTEGRTDGYRWCGTTEDYDRDKKYGFCPETAMSTVGGNSEGAPCVFPFTFLGNKYESCTSAGRSDGKMWCATTANYDDDRKWGFCPDQGYSLFLVAAHEFGHAMGLEHSQDPGALMAPIYTYTKNFRLSQDDIKGIQELYGASPDIDLGTGPTPTLGPVTPEICKQDIVFDGIAQIRGEIFFFKDRFIWRTVTPRDKPMGPLLVATFWPELPEKIDAVYEAPQEEKAVFFAGNEYWIYSASTLERGYPKPLTSLGLPPDVQRVDAAFNWSKNKKTYIFAGDKFWRYNEVKKKMDPGFPKLIADAWNAIPDNLDAVVDLQGGGHSYFFKGAYYLKLENQSLKSVKFGSIKSDWLGC
As for B1, in data set [2], the “amount of peptide cleaved after 4 hours (FRET peptide cleavage)” value was “no significant amount (1±3 pmol)” and the initial cleavage rate was 0.1±0.1×10^-10M s^-1. Besides, in data set [3], the “amount of peptide cleaved after 4 hours (FRET peptide cleavage)” value is 205 ± 18 pmol and the initial cleavage rate is on record as 2.0±0.1×10^-10M s^-1. Further, the “rate of cleavage relative to SDF-1 (times lower), SDS-PAGE” value in data set [4] is “the rate of SDF-1(S4V) cleavage is at least 48 times lower than SDF-1”. The “cleavage seen by SDS-PAGE” value in data set [5] is recorded as “more Sumo-SDF-1-RAD was cleaved within 1 hour than Sumo-SDF-1(S4V)-RAD in 48 hours”.
